Data published in patent US20250295809A1 (published 2025).

Experiments:
HER2 on SK-BR-3 cells = HER2 on SK-BR-3 cells (human, UniProt P04626 23-1255); assay: cell-based or functional assay
HER2 ECD [1] = biological target: T1, HER2 ECD (human, UniProt P04626 23-652); assay: SPR (Biacore 8K); antibody captured on anti-human IgG Fc CM5 chip; HER2 ECD 0.625-80 nM as analyte; 1:1 global fit; 25 C
T1 construct: extracellular domain; also called ErbB2; HER2/neu

HER2 ECD [2] = biological target: T2, HER2 ECD (human, UniProt P04626 23-652); assay: SPR Biacore, binding to Her2 ECD, 1:1 binding model (global fit); HER-10 expressed from Expi293 cells
T2 construct: extracellular domain
Description: (§1) Antibody binding to HER2 was analyzed by Biacore 8K (GE Healthcare) surface plasmon resonance instrument (SPR). All reagents used were from GE Healthcare. HBS-EP+ was used as the sample and running buffer and the interaction was measured at 25° C. […] HER2 ECD (0.625-80 nM, 2-fold dilution) was passed over the captured anti-HER2 antibody at 30 μl/min flow rate, and association and dissociation phases were recorded for 300 and 600 sec, respectively. The sensor chip was regenerated by a 30 sec injection of 3M MgCl₂ at 30 μl/min at the end of each injection cycle. […] The conditioned media was diluted in HBS-EP+ to achieve a capture level that produced a final HER2 binding response of less than 200 RU.
(§2) SK-BR-3 cells were reverse transfected with plasmid DNA using Lipofectamine LTX and PLUS Reagent in fibronectin-coated flasks. The culture supernatant was replaced with serum-free medium (Opti-MEM) one day post-transfection. Three days post-transfection, the culture medium was concentrated using centrifugal concentrators (MilliporeSigma) and analyzed by Biacore SPR binding to Her2 ECD with data fitted to a 1:1 binding model (global fit).

HER2 ECD [3] = biological target: T2, HER2 ECD; assay: SPR Biacore, binding to Her2 ECD, 1:1 binding model (global fit); HER-10 from concentrated SK-BR-3 culture medium
Description: as §1, §2

B1: Ab-HER-78 (bispecific antibody, human IgG1, kappa)
heavy: QVQLVQSGAEVKKPGASVKVSCKASGYSFTGYFINWVREAPGQGLEWMGHISSSYATSTYNQKFQGRVTFTVDTSSSTAYMELSSLRSEDTAVYYCVRSGNYEEYAMDYWGQGTLVTVSSASTKGPSVFPLAPSSKSTSGGTAALGCLVKDYFPEPVTVSWNSGALTSGVHTFPAVLQSSGLYSLSSVVTVPSSSLGTQTYICNVNHKPSNTKVDKRVEPKSCDKTHTCPPCPAPELVGGPSVFLLPPKPKDTLMISRTPEVTCVVVDVSHEDPEVKFNWYVDGVEVHNAKTKPPEEQYNSTLRVVSVLTVLHQDWLNGKEYKCKVSNKALPAPIEKTISKAKGQPREPQVYTLPPSRDELTKNQVSLTCLVKGFYPSDIAVEWESNGQPENNYKTTPLVLDSDGSFFLYSKLTVDKSRWQQGNVFSCSVMHEALHNHYTQKSLSLSPGK
light: not shown
Emax (SK-BR-3 cell proliferation, CellTiter-Glo 2.0, five days) (HER2 on SK-BR-3 cells): 56.5% | IC50 (SK-BR-3 cell proliferation, CellTiter-Glo 2.0, five days) (HER2 on SK-BR-3 cells): 0.08 µg/mL

B2: HER-10 recombinant (naked) antibody (antibody, human IgG1, kappa, V domains shown)
VH: QVQLQQSGPELVKPGASLKLSCTASGFNIKDTYIHWVKQRPEQGLEWIGRIYPTNGYTRYDPKFQDKATITADTSSNTAYLQVSRLTSEDTAVYYCSRWGGDGFYAMDYWGQGASVTVSS
VL: DIVMTQSHKFMSTSVGDRVSITCKASQDVNTAVAWYQQKPGHSPKLLIYSASFRYTGVPDRFTGSRSGTDFTFTISSVQAEDLAVYYCQQHYTTPPTFGGGTKVEIKR
notes: also called Ab-HER-10
Kd (HER2 ECD [1]): 1.2 nM | koff (HER2 ECD [1]): 0.00021 s⁻¹ | kon (HER2 ECD [1]): 190000 M⁻¹ s⁻¹

B3: HER-10 anti-HER2 antibody (Ab-HER-10) (antibody, human IgG1, kappa, V domains shown)
VH: B2 VH
VL: B2 VL
Kd (HER2 ECD [2]): 1.58 nM | Kd (HER2 ECD [3]): 0.96 nM

B4: HER-10 vectorized anti-HER2 antibody (antibody, human IgG1, kappa, V domains shown)
VH: B2 VH
VL: B2 VL
notes: also called Ab-HER-10
Kd (HER2 ECD [1]): 1.5 nM | koff (HER2 ECD [1]): 0.00025 s⁻¹ | kon (HER2 ECD [1]): 170000 M⁻¹ s⁻¹
